Results as given in article PMC4536637, “Unique Toll-Like Receptor 4 Activation by NAMPT/PBEF Induces NFκB Signaling and Inflammatory Lung Injury” (Scientific Reports, 2015).

Target: T1, recombinant human TLR4 (Toll-like receptor 4) (human, UniProt O00206 24-631)
T1 construct: Toll-like receptor 4, human, recombinant; No catalogue number is printed; also called rTLR4; source: bought: R&D Systems
Assay: SPR; Bio-Rad ProteOn XPR36, GLC chip; Bethyl PBEF antibody covalently immobilised (5000 RU); rPBEF only (100 nM), rTLR4 only (1 uM) and pre-mixed rPBEF-rTLR4 injected over the antibody surface; PBST (10 mM phosphate, 150 mM NaCl, 0.05% Tween20, pH 7.4)
Conditions: both partners purified

T1 sequence (O00206 24-631): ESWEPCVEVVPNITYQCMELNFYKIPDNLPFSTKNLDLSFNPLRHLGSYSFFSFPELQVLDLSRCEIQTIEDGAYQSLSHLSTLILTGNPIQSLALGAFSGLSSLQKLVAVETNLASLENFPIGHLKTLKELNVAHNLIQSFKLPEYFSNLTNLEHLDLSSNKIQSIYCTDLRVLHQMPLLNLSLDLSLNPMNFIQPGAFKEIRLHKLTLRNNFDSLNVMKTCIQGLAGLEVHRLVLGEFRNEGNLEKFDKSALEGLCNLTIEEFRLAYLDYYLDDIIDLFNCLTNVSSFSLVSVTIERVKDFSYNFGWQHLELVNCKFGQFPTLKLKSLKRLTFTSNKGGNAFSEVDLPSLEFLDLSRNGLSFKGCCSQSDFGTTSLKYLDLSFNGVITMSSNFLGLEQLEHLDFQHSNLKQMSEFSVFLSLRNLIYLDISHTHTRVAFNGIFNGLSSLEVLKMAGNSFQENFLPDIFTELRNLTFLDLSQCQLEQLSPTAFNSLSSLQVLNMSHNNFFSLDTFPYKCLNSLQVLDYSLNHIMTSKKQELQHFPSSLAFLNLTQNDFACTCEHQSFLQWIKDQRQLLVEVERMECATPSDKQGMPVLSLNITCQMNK

binding result: binds
B1: recombinant human NAMPT/PBEF (nicotinamide phosphoribosyl-transferase / pre-B cell colony-enhancing factor) (natural protein, UniProt P43490 1-491, looked up)
chain: MNPAAEAEFNILLATDSYKVTHYKQYPPNTSKVYSYFECREKKTENSKLRKVKYEETVFYGLQYILNKYLKGKVVTKEKIQEAKDVYKEHFQDDVFNEKGWNYILEKYDGHLPIEIKAVPEGFVIPRGNVLFTVENTDPECYWLTNWIETILVQSWYPITVATNSREQKKILAKYLLETSGNLDGLEYKLHDFGYRGVSSQETAGIGASAHLVNFKGTDTVAGLALIKKYYGTKDPVPGYSVPAAEHSTITAWGKDHEKDAFEHIVTQFSSVPVSVVSDSYDIYNACEKIWGEDLRHLIVSRSTQAPLIIRPDSGNPLDTVLKVLEILGKKFPVTENSKGYKLLPPYLRVIQGDGVDINTLQEIVEGMKQKMWSIENIAFGSGGGLLQKLTRDLLNCSFKCSYVVTNGLGINVFKDPVADPNKRSKKGRLSLHRTPAGNFVTLEEGKGDLEEYGQDLLHTVFKNGKVTKSYSFDEIRKNAQLNIELEAAHH
notes: nicotinamide phosphoribosyl-transferase (NAMPT/PBEF/visfatin), human, bioactive non-denatured recombinant protein; also called rPBEF; visfatin; source: bought: MBL International
